Reference: the Immune Epitope Database (IEDB)

Columns and labels:
HLA-A*32:01 = experiment: IEDB peptide-MHC binding, purified MHC/competitive/radioactivity; filed as Kd, often an IC50 or EC50 that approximates it; ≥ and ≤ were set here for values at or beyond the usual limits of such assays
HLA-A*30:01 = experiment: as above
HLA-A*02:01 [1] = experiment: IEDB peptide-MHC binding, purified MHC/direct/fluorescence; filed as Kd, often an IC50 or EC50 that approximates it; ≥ and ≤ were set here for values at or beyond the usual limits of such assays
HLA-A*69:01 = experiment: as above
HLA-A*03:01 = experiment: as above
HLA-A*11:01 = experiment: as above
HLA-A*02:01 [2] = experiment: IEDB peptide-MHC binding, purified MHC/competitive/fluorescence; ≥ and ≤ were set here for values at or beyond the usual limits of such assays
HLA-B*40:01 [3] = experiment: IEDB peptide-MHC binding, purified MHC/direct/fluorescence; filed as Kd, often an IC50 or EC50 that approximates it; ≥ and ≤ were set here for values at or beyond the usual limits of such assays
HLA-A*26:01 = experiment: as above
HLA-A*33:01 = experiment: IEDB peptide-MHC binding, purified MHC/competitive/radioactivity; filed as Kd, often an IC50 or EC50 that approximates it; ≥ and ≤ were set here for values at or beyond the usual limits of such assays; settings: source organism: Dengue virus 1 Brazil/97-11/1997
HLA-B*40:01 [4] = experiment: as above
HLA-A*01:01 = experiment: IEDB peptide-MHC binding, purified MHC/direct/fluorescence; filed as Kd, often an IC50 or EC50 that approximates it; ≥ and ≤ were set here for values at or beyond the usual limits of such assays; settings: source organism: Haemophilus influenzae
HLA-A*31:01 = experiment: as above
HLA-B*15:01 = experiment: as above
HLA-A*23:01 = experiment: IEDB peptide-MHC binding, purified MHC/competitive/radioactivity; filed as Kd, often an IC50 or EC50 that approximates it; ≥ and ≤ were set here for values at or beyond the usual limits of such assays; settings: source organism: Dengue virus 1 Brazil/97-11/1997
HLA-A*24:02 = experiment: as above; settings: source organism: Dengue virus 1 Brazil/97-11/1997
HLA-B*58:01 = experiment: IEDB peptide-MHC binding, purified MHC/direct/fluorescence; filed as Kd, often an IC50 or EC50 that approximates it; ≥ and ≤ were set here for values at or beyond the usual limits of such assays
[5] = source organism: Dengue virus 1 Singapore/S275/1990
[6] = source organism: Dengue virus 2 Jamaica/1409/1983
[7] = source organism: Vaccinia virus WR
[8] = source organism: Bacillus cytotoxicus
[9] = source organism: Francisella tularensis subsp. holarctica LVS
[10] = source organism: Dengue virus 1 Brazil/97-11/1997
[11] = source organism: Dengue virus 4 Philippines/H241/1956
[12] = source organism: Dengue virus 3 Martinique/1243/1999
[13] = source organism: Bacillus anthracis
[14] = source organism: Dengue virus 2 Peru/IQT2913/1996
[15] = source organism: Sudan ebolavirus
[16] = source organism: Zaire ebolavirus
[17] = source organism: Haemophilus influenzae
[18] = source organism: Rickettsia prowazekii

AAIGKAWEEG
Kd (HLA-A*32:01; [5]): ≥ 69.9 µM

AGILKRWGTI
Kd (HLA-A*32:01; [6]): 8.82 µM

AGRLVRPFL
Kd (HLA-A*30:01; [7]): 0.252 µM

ALSGFYYVQ
Kd (HLA-A*02:01 [1]; [8]): 1.4 µM
Kd (HLA-A*69:01; [8]): 2.36 µM

AVYSICKFY
Kd (HLA-A*03:01; [9]): 0.297 µM
Kd (HLA-A*11:01; [9]): 0.708 µM

DARTYSDPLA
Kd (HLA-A*30:01; [10]): 0.924 µM

DEAHFTDPSS
Kd (HLA-A*30:01; [11]): 0.165 µM

DSMFLMTAT
IC50 (HLA-A*02:01 [2]; source organism: Variola virus): 4.4 µM

DTQGSNWIQK
Kd (HLA-A*32:01; [6]): 0.267 µM

EDMLTVWNRV
Kd (HLA-A*32:01; [12]): 13.6 µM

EHAGVISVL
Kd (HLA-A*69:01; source organism: Homo sapiens): 4.64 µM
Kd (HLA-B*40:01 [3]; source organism: Homo sapiens): 0.364 µM

EQDGITYYL
Kd (HLA-A*02:01 [1]; [13]): ≥ 20 µM
Kd (HLA-A*69:01; [13]): 0.0125 µM

ETFKVIGGW
Kd (HLA-A*26:01; source organism: Influenza A virus (A/swine/Italy/1654-1/99(H1N2))): 0.182 µM

EVAGAGSGF
Kd (HLA-A*26:01; source organism: Mycobacterium tuberculosis variant bovis): 0.0014 µM

EVKTCTWPKS
Kd (HLA-A*32:01; [12]): ≥ 48.4 µM

FMNEDHWFSR
Kd (HLA-A*32:01; [10]): 7.08 µM
Kd (HLA-A*33:01): 0.0132 µM

FVYHPDRLK
Kd (HLA-A*03:01; source organism: Escherichia coli O157:H7): 0.0467 µM

GAKIGCINV
Kd (HLA-A*30:01; [7]): 0.00911 µM

GEGVLSKADL
Kd (HLA-B*40:01 [4]; [12]): 0.0424 µM

GLFPVSIPIT
Kd (HLA-A*30:01; [14]): 15.9 µM

GLITSTVTG
IC50 (HLA-A*02:01 [2]; [15]): 12.4 µM

GLRNSLLVA
Kd (HLA-A*30:01; [7]): 0.0935 µM

GRLITANPVV
Kd (HLA-A*30:01; [12]): 1.43 µM

GRTLRVLKMV
Kd (HLA-A*30:01; [10]): 0.634 µM

GSTLAGVNV
IC50 (HLA-A*02:01 [2]; [16]): ≥ 95 µM

GTEMFRHGY
Kd (HLA-A*01:01): 0.241 µM
Kd (HLA-A*03:01; [17]): 2.73 µM
Kd (HLA-A*11:01; [17]): 0.166 µM
Kd (HLA-A*31:01; [17]): 8.18 µM
Kd (HLA-A*69:01; [17]): 4.45 µM
Kd (HLA-B*15:01; [17]): 1.16 µM

GTGNIGETL
Kd (HLA-A*32:01; [6]): 8.12 µM

GYFTQTAGPW
Kd (HLA-A*23:01): 1.22 µM
Kd (HLA-A*24:02): ≥ 70.3 µM

HGLFPQLSA
IC50 (HLA-A*02:01 [2]; [16]): 47.9 µM

HLIIQYPSV
Kd (HLA-A*30:01; [7]): 0.164 µM

HLSNYIVSI
Kd (HLA-A*32:01; [7]): 0.000986 µM

HMILVVVTT
Kd (HLA-A*32:01; [11]): ≥ 77.8 µM

HSRASPRIG
Kd (HLA-A*30:01; [7]): 0.000931 µM

HTLESPVEF
Kd (HLA-A*11:01; source organism: SARS-CoV1): ≥ 53.9 µM
Kd (HLA-A*31:01; source organism: SARS-CoV1): 1.4 µM
Kd (HLA-B*15:01; source organism: SARS-CoV1): 1.44 µM
Kd (HLA-B*58:01; source organism: SARS-CoV1): 0.0981 µM

HTSARLHSL
Kd (HLA-A*30:01; [7]): 0.00414 µM

IAGVAGLIT
IC50 (HLA-A*02:01 [2]; [16]): ≥ 205 µM

IGESSSNPTI
Kd (HLA-A*30:01; [11]): 7.34 µM

IHDFIDNPL
IC50 (HLA-A*02:01 [2]; [15]): ≥ 103 µM

IKHVGLITC
IC50 (HLA-A*02:01 [2]; [7]): ≥ 622 µM

ILGLPTQTV
Kd (HLA-A*02:01 [1]; source organism: SARS-CoV1): 0.402 µM
Kd (HLA-B*15:01; source organism: SARS-CoV1): 1.6 µM

ILIDTSAWV
Kd (HLA-A*69:01; source organism: Mycobacterium tuberculosis): 0.429 µM

ISGVFPVSI
Kd (HLA-A*32:01; [6]): 1.12 µM

ISYGGGWRFQ
Kd (HLA-A*32:01; [10]): ≥ 56.4 µM

ITYWSRFTI
Kd (HLA-A*32:01; [7]): 0.00248 µM

KALKINWYKK
Kd (HLA-A*32:01; source organism: Dengue virus 3 Singapore/8120/1995): 8.04 µM

KEENLVRSM
Kd (HLA-B*40:01 [4]; [10]): 1.13 µM

KGGTGGWLW
Kd (HLA-B*58:01; source organism: Mycobacterium tuberculosis str. Haarlem): 0.0433 µM

KGRISYYEM
Kd (HLA-A*30:01; [7]): 0.0144 µM

KIFEYGFTF
Kd (HLA-A*02:01 [1]; [18]): 0.105 µM
Kd (HLA-A*03:01; [18]): 6.02 µM
Kd (HLA-A*11:01; [18]): 0.377 µM
Kd (HLA-A*31:01; [18]): 0.196 µM
Kd (HLA-A*69:01; [18]): 4.28 µM
Kd (HLA-B*15:01; [18]): 0.229 µM
Kd (HLA-B*40:01 [3]; [18]): 4.35 µM
Kd (HLA-B*58:01; [18]): 0.255 µM

KIKSPIYYK
Kd (HLA-A*30:01; source organism: Vaccinia virus Copenhagen): 0.000932 µM

KISISYIKL
Kd (HLA-A*30:01; [7]): 0.292 µM

KNFAGPVSQ
Kd (HLA-A*32:01; [6]): ≥ 44.9 µM

KTALLIVSG
Kd (HLA-A*32:01; [12]): 6.83 µM

KTLAPFNFL
Kd (HLA-A*30:01; [7]): 0.015 µM

KTQEPPQVA
Kd (HLA-A*02:01 [1]; [17]): 7.07 µM

KTSGYISSF
Kd (HLA-A*32:01; [7]): 0.000502 µM

KVRPTFAAG
Kd (HLA-A*30:01; [6]): 0.0044 µM

LARWGSFKK
Kd (HLA-A*30:01; [5]): 0.0244 µM

LAVVSVSPLL
Kd (HLA-A*30:01; [14]): 11.9 µM

LEFEALGFMN
Kd (HLA-B*40:01 [4]; [10]): 2.66 µM

LEHGGCVTTM
Kd (HLA-B*40:01 [4]; [12]): 0.00941 µM

LFSYGTLII
IC50 (HLA-A*02:01 [2]; source organism: Variola virus): ≥ 72.6 µM

LLIHFLLSL
Kd (HLA-A*32:01; [7]): ≥ 52.8 µM

LLNNYTLKI
Kd (HLA-A*32:01; [7]): 0.0254 µM

LSPETLVGV
IC50 (HLA-A*02:01 [2]; source organism: Vaccinia virus): 0.904 µM
